As usually defined, the IC50 is the concentration that gives 50% inhibition.

Where only a bound is given, the exact number is not on record here.

The first assay has as its target T1, soluble recombinant HLA-DR2 molecules (MHC class II HLA-DR2 protein) (human).
T1 construct: Soluble, empty protein from Drosophila S2 cells, captured on plates by antibody LB3.1; also called MHC class II DR2 protein; recombinant HLA-DR2 protein
As to the kind of experiment: competition ELISA on soluble HLA-DR2; competitor biotinylated Cop 1 (1.5 µM). (In general: An ELISA detects its analyte on a solid surface through an enzyme-linked reagent.)
Take AAEKYAAYAAAAAAA [synthetic peptide #55]: the IC50 was over 1 mM.

Regarding EKAAYAAAAAAAAAA [synthetic peptide #44], the IC50 was over 1 mM.

On to AKEAYAAYKAAAAAA [synthetic peptide #78], for which the IC50 is over 1 mM.

In the case of AEEAYAAYKAAAAAA [synthetic peptide #80], the IC50 was over 1 mM.

Consider EAKEYAAYAAAAAAA [synthetic peptide #74], for which the IC50 is over 1 mM.

Regarding EKEAYAAYKAAAAAA [synthetic peptide #92], the IC50 is over 1 mM.

For the molecule AKAEAAAYAAAAAAA [synthetic peptide #48], the IC50 is over 1 mM.

Take AEKEYAAAAAAAAAA [synthetic peptide #40]: the IC50 is over 1 mM.

Take AEKKYAAYAAAAAAA [synthetic peptide #54]: the IC50 is over 1 mM.

In the case of AKEAYAAAAAAAAAA [synthetic peptide #39], the IC50 is over 1 mM.

With AKEEYAAYAAAAAAA [synthetic peptide #62], the half-maximal inhibitory concentration (IC50) was over 1 mM.

AEAKYAAYAAAAAAA [synthetic peptide #60]: the IC50 is over 1 mM.

For the molecule EAAEYAAYKAAAAAA [synthetic peptide #89], the IC50 is over 1 mM.

Take AEEKYAAYKAAAAAA [synthetic peptide #83]: the IC50 is over 1 mM.

For EAKAYAAYAAAAAAA [synthetic peptide #75], the IC50 is over 1 mM.

On to AEAKYAAYKAAAAAA [synthetic peptide #79], for which the IC50 is over 1 mM.

EAKAYAAYKAAAAAA [synthetic peptide #86]: the IC50 is over 1 mM.

With EEKAYAAAAAAAAAA [synthetic peptide #105], the IC50 was over 1 mM.

With AAAEYAAYKAAAAAA [synthetic peptide #76], the IC50 is over 1 mM.

With KEKAAAAYAAAAAAA [synthetic peptide #47], the IC50 was over 1 mM.

For the molecule AAAKVAAAAAAAAAA [synthetic peptide #116], the IC50 was over 1 mM.

For the molecule AAEKYAAYKAAAAAA [synthetic peptide #77], the IC50 was over 1 mM.

Regarding EKAEYAAYAAAAAAA [synthetic peptide #72], the IC50 is over 1 mM.

Consider EAEKYAAYAAAAAAA [synthetic peptide #71], for which the IC50 is over 1 mM.

With AEEKYAAYAAAAAAA [synthetic peptide #56], the IC50 was over 1 mM.

In the case of AKKEYAAAAAAAAAA [synthetic peptide #37], the IC50 was over 1 mM.

Consider AKAEYAAYAAAAAAA [synthetic peptide #59], for which the IC50 is over 1 mM.

As to AAKEYAAYKAAAAAA [synthetic peptide #84], the IC50 was over 1 mM.

For the molecule AAEKYEAYAAAAAAA [synthetic peptide #69], the IC50 was over 1 mM.

On to AKAEYAAYKAAAAAA [synthetic peptide #81], for which the IC50 is over 1 mM.

For EKEAYAAYAAAAAAA [synthetic peptide #73], the IC50 was over 1 mM.

For AKEEYAAYKAAAAAA [synthetic peptide #82], the IC50 was over 1 mM.

Regarding AKEEYAAAAAAAAAA [synthetic peptide #38], the IC50 was over 1 mM.

For the molecule EEAKYAAYKAAAAAA [synthetic peptide #91], the IC50 was over 1 mM.

AKEAYAAYAAAAAAA [synthetic peptide #57]: the IC50 was over 1 mM.

With AKEKYAAYAAAAAAA [synthetic peptide #63], the IC50 was over 1 mM.

Take EKKAYAAAAAAAAAA [synthetic peptide #41]: the 50% inhibitory concentration (IC50) was over 1 mM.

Take AAKEYAAYAAAAAAA [synthetic peptide #58]: the IC50 is over 1 mM.

In the case of AEKAAAAYAAAAAAA [synthetic peptide #49], the IC50 is over 1 mM.

With AAEKVAAAAAAAAAA [synthetic peptide #114], the IC50 is over 1 mM.

EAEAYAAYKAAAAAA [synthetic peptide #88]: the IC50 is over 1 mM.

AAKAYEAYAAAAAAA [synthetic peptide #65]: the half-inhibitory concentration (IC50) is over 1 mM.

On to EEAAYAAYKAAAAAA [synthetic peptide #90], for which the IC50 is over 1 mM.

On to EKEAAAAYAAAAAAA [synthetic peptide #46], for which the IC50 was over 1 mM.

Turning to AEAKYEAYAAAAAAA [synthetic peptide #67], the IC50 is over 1 mM.

For the molecule AAKKYEAYAAAAAAA [synthetic peptide #68], the IC50 was over 1 mM.

For AAAKYAAAAAAAAAA [synthetic peptide #115], the IC50 was over 1 mM.

On to EKAAYAAYKAAAAAA [synthetic peptide #87], for which the IC50 was over 1 mM.

Turning to EAAKYAAYKAAAAAA [synthetic peptide #85], the IC50 was over 1 mM.

The target in the next assay is HLA-DR2 (DRB1*1501) on antigen presenting cells (MGAR, L466) (human). As to the kind of experiment: cell-based or functional assay.
On to AAEKYAAYAAAAAAA [synthetic peptide #55], for which the “Inhibition of IL-2 production (%), Hy1B” value came out at 30%.

As for EKAAYAAAAAAAAAA [synthetic peptide #44], the “Inhibition of IL-2 production (%), Hy1B” value was 0%.

On to AKEAYAAYKAAAAAA [synthetic peptide #78], for which the “Inhibition of IL-2 production (%), Hy1B” value came to 59%.

For AEEAYAAYKAAAAAA [synthetic peptide #80], the “Inhibition of IL-2 production (%), Hy1B” value stood at 30%.

As for EAKEYAAYAAAAAAA [synthetic peptide #74], the “Inhibition of IL-2 production (%), Hy1B” value was 22%.

As to EKEAYAAYKAAAAAA [synthetic peptide #92], the “Inhibition of IL-2 production (%), Hy1B” value was found to be 42%.

Regarding AKAEAAAYAAAAAAA [synthetic peptide #48], the “Inhibition of IL-2 production (%), Hy1B” value stood at 27%.

AEKEYAAAAAAAAAA [synthetic peptide #40]: the “Inhibition of IL-2 production (%), Hy1B” value came out at 22%.

Consider AEKKYAAYAAAAAAA [synthetic peptide #54], for which the “Inhibition of IL-2 production (%), Hy1B” value stood at 38%.

AKEAYAAAAAAAAAA [synthetic peptide #39]: the “Inhibition of IL-2 production (%), Hy1B” value amounted to 32%.

Consider AKEEYAAYAAAAAAA [synthetic peptide #62], for which the “Inhibition of IL-2 production (%), Hy1B” value stood at 22%.

Consider AEAKYAAYAAAAAAA [synthetic peptide #60], for which the “Inhibition of IL-2 production (%), Hy1B” value amounted to 0%.

For the molecule EAAEYAAYKAAAAAA [synthetic peptide #89], the “Inhibition of IL-2 production (%), Hy1B” value stood at 41%.

For the molecule AEEKYAAYKAAAAAA [synthetic peptide #83], the “Inhibition of IL-2 production (%), Hy1B” value is 43%.

EAKAYAAYAAAAAAA [synthetic peptide #75]: the “Inhibition of IL-2 production (%), Hy1B” value was found to be 19%.

AEAKYAAYKAAAAAA [synthetic peptide #79]: the “Inhibition of IL-2 production (%), Hy1B” value worked out at 50%.

For EAKAYAAYKAAAAAA [synthetic peptide #86], the “Inhibition of IL-2 production (%), Hy1B” value turned out to be 29%.

Regarding EEKAYAAAAAAAAAA [synthetic peptide #105], the “Inhibition of IL-2 production (%), Hy1B” value is 36%.

For AAAEYAAYKAAAAAA [synthetic peptide #76], the “Inhibition of IL-2 production (%), Hy1B” value came to 52%.

As to KEKAAAAYAAAAAAA [synthetic peptide #47], the “Inhibition of IL-2 production (%), Hy1B” value worked out at 13%.

In the case of AAAKVAAAAAAAAAA [synthetic peptide #116], the “Inhibition of IL-2 production (%), Hy1B” value came to 30%.

On to AAEKYAAYKAAAAAA [synthetic peptide #77], for which the “Inhibition of IL-2 production (%), Hy1B” value was found to be 61%.

Consider EKAEYAAYAAAAAAA [synthetic peptide #72], for which the “Inhibition of IL-2 production (%), Hy1B” value was found to be 39%.

On to EAEKYAAYAAAAAAA [synthetic peptide #71], for which the “Inhibition of IL-2 production (%), Hy1B” value worked out at 25%.

For the molecule AEEKYAAYAAAAAAA [synthetic peptide #56], the “Inhibition of IL-2 production (%), Hy1B” value was found to be 16%.

For AKKEYAAAAAAAAAA [synthetic peptide #37], the “Inhibition of IL-2 production (%), Hy1B” value worked out at 5%.

For the molecule AKAEYAAYAAAAAAA [synthetic peptide #59], the “Inhibition of IL-2 production (%), Hy1B” value is 29%.

As to AAKEYAAYKAAAAAA [synthetic peptide #84], the “Inhibition of IL-2 production (%), Hy1B” value worked out at 42%.

For the molecule AAEKYEAYAAAAAAA [synthetic peptide #69], the “Inhibition of IL-2 production (%), Hy1B” value turned out to be 45%.

On to AKAEYAAYKAAAAAA [synthetic peptide #81], for which the “Inhibition of IL-2 production (%), Hy1B” value turned out to be 28%.

With EKEAYAAYAAAAAAA [synthetic peptide #73], the “Inhibition of IL-2 production (%), Hy1B” value is 23%.

Regarding AKEEYAAYKAAAAAA [synthetic peptide #82], the “Inhibition of IL-2 production (%), Hy1B” value turned out to be 47%.

Take AKEEYAAAAAAAAAA [synthetic peptide #38]: the “Inhibition of IL-2 production (%), Hy1B” value came to 17%.

For the molecule EEAKYAAYKAAAAAA [synthetic peptide #91], the “Inhibition of IL-2 production (%), Hy1B” value came to 54%.

In the case of AKEAYAAYAAAAAAA [synthetic peptide #57], the “Inhibition of IL-2 production (%), Hy1B” value is 0%.

Consider AKEKYAAYAAAAAAA [synthetic peptide #63], for which the “Inhibition of IL-2 production (%), Hy1B” value stood at 29%.

EKKAYAAAAAAAAAA [synthetic peptide #41]: the “Inhibition of IL-2 production (%), Hy1B” value was determined as 7%.

As for AAKEYAAYAAAAAAA [synthetic peptide #58], the “Inhibition of IL-2 production (%), Hy1B” value is 16%.

As to AEKAAAAYAAAAAAA [synthetic peptide #49], the “Inhibition of IL-2 production (%), Hy1B” value was determined as 36%.

As for AAEKVAAAAAAAAAA [synthetic peptide #114], the “Inhibition of IL-2 production (%), Hy1B” value was found to be 34%.

For EAEAYAAYKAAAAAA [synthetic peptide #88], the “Inhibition of IL-2 production (%), Hy1B” value turned out to be 55%.

For AAKAYEAYAAAAAAA [synthetic peptide #65], the “Inhibition of IL-2 production (%), Hy1B” value turned out to be 22%.

With EEAAYAAYKAAAAAA [synthetic peptide #90], the “Inhibition of IL-2 production (%), Hy1B” value amounted to 22%.

Consider EKEAAAAYAAAAAAA [synthetic peptide #46], for which the “Inhibition of IL-2 production (%), Hy1B” value stood at 0%.

On to AEAKYEAYAAAAAAA [synthetic peptide #67], for which the “Inhibition of IL-2 production (%), Hy1B” value is 41%.

With AAKKYEAYAAAAAAA [synthetic peptide #68], the “Inhibition of IL-2 production (%), Hy1B” value came to 41%.

As to AAAKYAAAAAAAAAA [synthetic peptide #115], the “Inhibition of IL-2 production (%), Hy1B” value turned out to be 25%.

Take EKAAYAAYKAAAAAA [synthetic peptide #87]: the “Inhibition of IL-2 production (%), Hy1B” value stood at 40%.

For the molecule EAAKYAAYKAAAAAA [synthetic peptide #85], the “Inhibition of IL-2 production (%), Hy1B” value came to 25%.

These data come from patent US20060020109A1 (Harvard, published 2006).
